Test system: Human umbilical vein endothelial cells (HUVEC)
Assay: [3H]thymidine incorporation, HUVEC growth in vitro
Assay type: cell-based
Settings: increasing concentrations, FIG. 6C
Method: To determine if the '362 peptide or the '367 peptide affects the in-vitro growth of cells, the '362 peptide was tested in culture dishes for the ability to inhibit the growth of prostrate tumor cells or of lung tumor cells. Radioactive hydrogen (^3 H) was attached to thymidine([^3H]hymidine), which is one of the components of DNA. Cells that grow in the presence of [^3H]thymidine incorporate the radioactive thymidine into their DNA.
Human umbilical vein endothelial cells (HUVEC) were also grown in increasing concentrations of the '362 peptide or '367 peptide in the presence of radioactive thymidine. HUVEC cells are commonly used to test for angiogenic regulation because these cells respond to angiogenic inhibitors in a fashion similar to the cells in the human body that form new blood vessels. […] Research protocols designed to elucidate the reasons for this unexpected difference in response of HUVEC to endostatin protein and to '362 peptide are set out in the Research Plan, Phoenix Pharmaceuticals, Inc., 2438 Wyandotte Street, Mountain View, Calif. 94043, (1999) which is hereby incorporated by reference.

B1: endostatin protein: protein of about 20 kDa with a zinc-binding domain, inhibitor of endothelial cell growth (FIG. 5) (protein, UniProt P39060 1572-1754, looked up)
Endostatin: HSHRDFQPVLHLVALNSPLSGGMRGIRGADFQCFQQARAVGLAGTFRAFLSSRLQDLYSIVRRADRAAVPIVNLKDELLFPSWEALFSGSEGPLKPGARIFSFDGKDVLRHPTWPQKSVWHGSDPNGRRLTESYCETWRTEAPSATGQASSLLGGRLLGQSAASCHHAYIVLCIENSFMTASK
modifications: Endostatin
HUVEC growth rate (radioactive thymidine): dramatic reduction in HUVEC growth

Source: patent US6835806B2, “Cell growth regulation system” (Phoenix Pharmaceuticals, Inc., priority 2000, dated 2004)
